Ends that are not written are not given here. * marks the point of attachment. 125I = [125I]*

The assay concerns the target NTP receptor on human neutrophils (human). As to the kind of experiment: saturation curve and Scatchard-like analysis of 125I-NTP-Y binding to human neutrophils.

Consider Y(125I)RRPESKATNATLDPR [125I-labeled NTP-Y (human Neutrophil Targeting Peptide synthesized with an N-terminal tyrosine)], for which the NTP receptors per cell (receptors per cell) was found to be 3000.

For the origin of these results see US20020032314A1.
